Consider 19 sequences from the DeepSol protein solubility set.

A short description of the data set: soluble on expression in E. coli; label from the status in PepcDB or PDB records.
Take “GHMSYSITLRVYQTNRDRGYFSIVEKTVWHFANGGTWSEANGAHTLTMGGSGTSGMLRFMSTKGERITVAVGVHNYKRWCDVVTGLKPDETALVINPQYYNNGGRDYVREKQLAEYSVTSAIGTKVEVVYTVAEGNNLEANVIFS”: the “soluble on expression in E. coli” value is on record as “soluble”.

Consider “MTLILKRVQLLKDKPRREAIDRFLRQHQLSLEADCEMAIIAEYQQRLVGCGAIAGNVLKCIAIDPSLQGEGLSLKLLTELLTLAYELGRSELFLFTKPCNAALFSGAGFWPIAQAGDRAVLMENSRERLTRYCRQLAMYRQPGRKIGAIVMNANPFTLGHRWLVEQAASQCDWLHLFVVKEDASCFSYHDRFKLIEQGITGIDKVTLHPGSAYLISRATFPGYFLKEQGVVDDCHSQIDLQLFRERLAPALQITHRFVGTEPLCPLTRNYNQRMKSLLEAPGDAPPIEVVELARIEKNGGPVSASRVRELYRQRNWQAVAALVPPGTLSFLMQLAESEHQTA”, for which the “soluble on expression in E. coli” value is “not soluble”.

Consider “MNQIDTGLVKRLIREQFPEWAHLEVKPVKFSGHDNRTFQLGDKMSVRLPSDAAYTPQVEKENKWLPILSKELSLPISTPIAKGNPSEAYPWPWSINKWIEGETVTKQNVRDLSEFAAHLGSFLVELQSIDASKGPIAGAHNFYRGGLISVYDEEARDAIENNKDVFDETVLKHLWDLALQSTWRRKPVWIHGDVAPGNLLVKDGKLCAVIDFGILGVGDPACDAAMSWTFFDKSSRKIFKEVLQIDEETWNRARGWALWKALITYDANKISNKIVAEESYRVIQVIVNDYGR”, for which the “soluble on expression in E. coli” value is reported as “not soluble”.

“MWAQKTLQLKARSRGFHLITDEIEQQLPQIHELSVGLLHLFIQHTSASLTLNENADPTVRMDMEAHFNKFVQERAPYYQHTYEGDDDMPAHIKASLLGSSVTIPIQNGRLALGTWQGIYLGEHRDFGGSRRIIATINGELEHHHHHH”: the “soluble on expression in E. coli” value is “soluble”.

For “MGLSCALTSGLSLRCFSNTPARLSCGAGILHCSKLCLSGFGDPAQGRLHNANHGAVRLHGTVTAFKHRRGYGFVLAEGVAASAPPLKHTYVALDTHAAAARNNGVPPAREEACNELHKSFFFTRSALMGGFYVTEGERVSFAVVAVPPGKGINRRVAGDSPSTRKDDGDHAALGGAETAEFLLGSPEGELEEDSSAATSDTQSQLHRIAVSLRYYDAKTGKETPISPLTLYGKIVEWDAAAGVGVIAELDTRRQYHEDAPRFPFSLESVDLALGTELRSGRYVRFCLEPATHAQGGGGEDTAAAVTPTSGAEAAADVDEDVELVAQRVIIDSSMERRKGVFGRPLVLADAAPGTMTSESRFSGVVREVKADHFGFIQDDLSGESIFFHLSNASSRVKAGDRVTYLLREVEYGKHTGKKACFDVLIDQTVTSRARDAASDCGASAGAGNAGGHHRKHAAERRSKTARDEDDLDFELL”, the “soluble on expression in E. coli” value is on record as “not soluble”.

For the sequence “MSLKIHTLRLILGDQLNARHSWFREKDAGVLYVMMELKQETDYVVHHRQKVLAFFAAMRAFGNALNTSGHQVNYIKLDDDTNEQSLTQNLQQLMKKYEVTTLECQQPDEYRLDHQLKSWAGANNIHLSWFDTEHFLTGRNSLKEYFPNSENYLMETFYRRVRKQYDILMDGGRPTGGRWNYDKENQKKVPASHDVELPLIFSNDVSDIDELLRSSEIKTMGQANAAQLIWEGHHHHHH”, the “soluble on expression in E. coli” value was “not soluble”.

“MGSDKIHHHHHHMSIPNAIKHTQTDSALSNIALSNTRDHLLTTGYKLIAQKGFTAVGIKQILDTAGVPKGSFYHYFASKEAFGEAIISHYFTQYKQRLNIIGSQDVSAQQKLYDYFQNWYDTQQSGCDHEKCLVVKLSAEVSDMSEPMRKVLHTGYQQTITWLATQIKAGWVDGSVPHPANVAAESMAKRWYFAWLGASLVTKISQTDTPLAEAWLMTTTAMGR”: the “soluble on expression in E. coli” value is recorded as “not soluble”.

In the case of “MAHHHHHHMKYGQVVVGPAGSGKTNYCKLMKEFMKIKKRNCYVVNLDSASEEYYYERKKKAINTTSNIEKELKQYYDTIYDIDIRNYVDVNSLMEDQMLGPNCALLRSVELLYENSYLLEDELNNYDDDENYFIIDTPGQIELYTHTDYFKKILSIFTDQNIRLIVVFLVDISFISSNTKLLSAYLTSLSTMINFELPHINILTKCDLLASKNYYQELRKFKHNNNFFFQRKLYKKINKKIKGGRGSRFFLNDKAEQSDGEGKRPSDDLGDTFLKEMECINGDKSFKDEYILCSDYDKRSVSSFSSASMSEGRSEKFGKNSSDEHSSSSVRSEEIEEKIYQKNYEKLNDILSLDPHDIVMTANKCMSRKYYKLNNAFAHIIEDFNLVSFIPLNIYDDDNVDFIINSIDMIIQYGEDKDVNDNYDM”, the “soluble on expression in E. coli” value is listed as “not soluble”.

With “MFGGSAPKPSIFGGTAATTTASSGFSFGNSSTSTANTGGNTNTTGGFSFGSAQPSTGSTGLFGNSTATGSMFGGSSAAAPAPASAGIFGNSGAAAPAPASTSIFGSSANSAAPATVTFGASAPSAGAGMFGANKPAAPTGGLFGSSTSTATTAPTGGLFGSSTAAPSSGLFGSTAAPAAPGGLFGSTSTSTAAPSGGLFGSSAAPTSTAPAPSGGLFGAAPATSNAAPTSGLFGNSAPAATASSGGLFGAAPKPAAPSGGLFGSTAPATTAATTTATSGLFGAPTSAPSSAPATGGLFGASTAPAAATGGLFSIGAASASTPSVGLFGNSSASTTAAAAPATAPAAASTGGLFGATTAAAAAPTSSTTGGLFGSTAAAPAASLPTGGLFGSSTPAKTPAAPTAGLFGASSTTTTSAPATGSLFGTAPATTTATSAAPAASTGGLFGASSTTTPASTAPTGGLFGAATTTAPAAAAPTGGLFGAATTTAPATVGPTGGLFGAATTTTPATAATLGQTPSTVSATPSLPTTTSTTSTLPKPAEATPTLGLGLGLTSTPLAKGTGWTTSGLKGAATTSAGLKIGASGSDTLSEEEIKAGLGGNDTKAFFTALQEVVNSYHSEIAKQERVFHNKMLELNAYDRELITLEPKVLGLYNEMDDLSGSCKKLHFNVASMTSVLNDIEQNVVELENKLSLPEWHTLDYKFPLDSRFASRHDVQRVQIAQMMLNVDSQMKCADFDLDQITKSLNTMQSTVLKTKTETPLEKTELIMKKQLQKLMDLSTQHDATRDKLNKLKDDHNLKTNNSSKA”, the “soluble on expression in E. coli” value is on record as “not soluble”.

Consider “GPGMATEEMKKLATVMAIGTANPPNCYYQADFPDFYFRVTNSDHLINLKQKFKRLCENSRIEKRYLHVTEEILKENPNIAAYEATSLNVRHKMQVKGVAELGKEAALKAIKEWGQPKSKITHLIVCCLAGVDMPGADYQLTKLLDLDPSVKRFMFYHLGCYAGGTVLRLAKDIAENNKGARVLIVCSEMTTTCFRGPSETHLDSMIGQALFGDGAAAVIVGADPDLTVERPIFELVSTAQTIVPESHGAIEGHLLESGLSFHLYKTVPTLISNNIKTCLSDAFTPLNISDWNSLFWIAHPGGPAILDQVTAKVGLEKEKLKVTRQVLKDYGNMSSATVFFIMDEMRKKSLENGQATTGEGLEWGVLFGFGPGITVETVVLRSVPVIS”, for which the “soluble on expression in E. coli” value is “soluble”.

Turning to “MESYLTVIEQNGQLLVDSREVAEMVGKRHTDLLRSIDGYVAILLNAKLRSVEFFLESTYKDATGRSLKHFHLTRKGCDMVANKMTGAKGVLFTAQYVSKFEEMEKALKARPSLIDTYLDMNEDERAIAYFTERKAKRELQEQLTLAEPKVEKYDRFLNTDGLMKIGQVAKAIGIKGMGQNNLFRFLRENKVLIDGTNKNAPYQKYVERGFFQVKTQETSVGIKTITLVTPKGADFIVDLLKKHGHKREIAS”, the “soluble on expression in E. coli” value was “not soluble”.

Take “MGSDKIHHHHHHMSIARLREFVSDLTDIVGDDLHEAALLDRMRAPMTRLLAKDDWLPDAFAQPHPEFYQQYLLHCDPKQRFSVVSFVWGPGQKTPIHDHTVWGMIGMLRGSEHSTRFEVVGPDQPLRVAQTDVLEEGGIDVVSPSVGDVHQVSNVYDDRVSISIHVYGANIGRVRRHVYNGETGGVKEFVSGFSSSVVPNLWNAN”: the “soluble on expression in E. coli” value is reported as “not soluble”.

Take “MPLLDLLRPVSDEELRVLSERNPGWQFERLADGRLIVSPTGGESGRIRAAVLGPLYRWNEARGLGVVFDASTGFKLPDGSVLAPDAAFLLGKRWQALSQEAREGFPPLAPDAVFEVRSRSQGLEELREKAAWYLANGVRLVVLLDPYLHRVEVFRPGGVEGHQGPERVPLDPGLPGFALETRGLFLP”: the “soluble on expression in E. coli” value is “soluble”.

As to “MGSDKIHHHHHHMNSLSFDFSDDFRPLAAKMRPRCLADYIGQSHLLGKDKPLRRAIEAGYAHSMILWGPPGTGKTTLAEIIAQHFDAEVERLSAVTSGVKEIREAIEQAKYNRQAGRKTLLFVDEVHRFNKSQQDAFLPYIEDGTVIFIGATTENPSFELNNALLSRARIYLLKPLQADEIEQILQNALQDKQNGLGQEHFILADEVLKLLADYVNGDARYALNCLALMADMAESSPQGKVLNQALLIAVLGERNARFDKGGDHYYDLISALHKSIRGSAVDAALYWYARILTAGGDPLYVARRLLAIASEDIGNADPRAMQIAISAWDCYSRVGAYEGERAIAQAVIYLAVAPKSNAVYQAFNQAKQLAKQAKDYDVPLHLRNAPTALMKSLAYGEEYRYAHNEANAYAAGENYFPEQLQDTQFYFPTERGMEKQIKEKLAWLKMQDHASEQQRYKR”, the “soluble on expression in E. coli” value was “not soluble”.

On to “YTSLIRRVEHAVDSDGSFETGNEVKLSGVGVIGTDERFERVGETYASYYGYESEELVGKHWSELHPSNEVQHIRTHVIPAVRSGGKWTGQSKGLRADETTFTESKMVTALEDGRMLIAVDEIDDSGLAE”, for which the “soluble on expression in E. coli” value is reported as “not soluble”.

Take “MGSDKIHHHHHHMVTLEPENKVRKILITDCADAKGLIAKITGVCFAHQLNIIKNTEFVDRIQGRFFMRTVLEGVFDDASLLKALSEVLPAQNHTKLVAADKKRIVVMVTKEAHCLGDLLMKAYYGGLDVDIAAVVGNYDSLRNLTEKFDIPFHHVCHQGLDRLEHEQAILKIVNGYQPDYVVLAKYMRVLTPEFVCAYPDRIINIHHSFLPAFIGASPYKQAWERGVKIIGATAHFVNDCLDEGPIIKQDVISVDHTFSAEEMAHNGRDVEKSVLSKALQLVLNEQVIVYGNKTVVF”: the “soluble on expression in E. coli” value is listed as “not soluble”.

Consider “MSGKVVRPSAALLEVFKSWQGGAIRVQRNEKLKTRLDVILDRPEKNNCLSGEMMKQFGEHTELFSDDQNAIIVVSGVGKSFCSGADLGLIKDISDQKLGVQMFEYMSSILSLLHSSPAISIAKIHGHALGGATEICSSTDIRIAHSGSKIAFFQSKMGIVPSWGGAEYMEGIMGRGRALAAMGRANVMSAEEAKDQGYVDYVYKSEDEAENFINQVASAGLKVTRAQKAMLNAVKIGKTEQKQVLEAVWNGETHRNALQKQLEAVVKK”, for which the “soluble on expression in E. coli” value was “not soluble”.

“LQYQPNKLARALTSSGFDAIMVISTRSTKTTAGNPFFSEVLHAITAKAEEEGFDVILQTSHNPAEDLQKCESKIKQKMIKGIIMLSSPADESFFAQLDKYDIPVVVIGKVEGQYAHVYSVDTDNFGDSIALTDALIESGHQNIACLHAPLDVHVSVDRVNGYKQSLAAHNIAVRDEWIVDGGYTHETALKAARQLLSQSPLPEAVFATDSLKLMSIYRAAAEKNIAIPQQLAVVGYSNETLSFILTPAPGGIDVPTQELGQQSCELLFRLISGKPSPQNITVATHMTLK”: the “soluble on expression in E. coli” value was “soluble”.

With “MAHHHHHHMTELVPEAEVTFNCGSPSFPYVRVYRCFKTTNSGMLYRLEDDKGRWAFYNDTPLTVFNVYVKFNADSVVTSDTDVALEMTQGEWDYWATTVVLPGHTQRFVEGTISSFLLNFASEGELAKDVTFVNGTPTVGYDRVYRCFKQNANGMLFRLVKVERPGNECVWNFYNDSRELSVEVELTLIEKDSAKPLGDTQVIPPPDGVGVALYKIVVPPLKTVPFLRGHPRFSKQSYVAKSMYDENMLDASEITFENGQPDRAVIDYPRTKVFRGFNNNGNGLAFLLVDPEEKKWAFYNDTTNYNVTATVRFAAGSVYKAAANTRVEVDPAVEGGTVCTITVMPLATELFITEGNPEQYQISLSAECSTGPKPEENPDYQNGQPDTKVMLRWEKVYRCFKNRGNGLLFRLVGDNDRRWGFYNDTTDFIFTVTVSFENGETVKTLGNTSVSEDPELGKVFTLEVAPLSTEVFVFGDLSGYKTRFAARSVRCA”, the “soluble on expression in E. coli” value is recorded as “not soluble”.
